# Results from US8221990B2, “Screening GPR12 receptor for substances having Nesfatin-1-like action, or which regulate Nesfatin-1 action” (Teijin Pharma Limited, priority 2007, dated 2012).
# Tests used:
# [1] = molecular target: T1, mGPR12 (Mus musculus, UniProt P35412); assay: CREB phosphorylation in CHO-K1-cell stable expression system (western blotting); assay type: cell-based; set-up: expressed in transfected cells; details: CHO-K1-mGPR12 cells
# T1 sequence (P35412 1-334): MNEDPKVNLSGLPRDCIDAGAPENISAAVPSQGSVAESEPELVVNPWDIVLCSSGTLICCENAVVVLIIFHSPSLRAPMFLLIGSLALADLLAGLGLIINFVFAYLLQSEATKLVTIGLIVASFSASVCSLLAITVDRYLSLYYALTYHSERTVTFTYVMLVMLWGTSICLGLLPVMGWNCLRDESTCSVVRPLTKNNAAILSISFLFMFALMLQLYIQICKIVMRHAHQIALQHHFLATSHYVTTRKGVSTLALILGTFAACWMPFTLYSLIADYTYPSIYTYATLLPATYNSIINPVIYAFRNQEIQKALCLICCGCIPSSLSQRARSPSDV
# Method: Using Nesfatin-1M30 (Mid-segment) as a test substance, the method for bringing the test substance into contact with cells was conducted as follows. The confluent CHO-K1 cells and CHO-K1-mGPR12 cells were recovered in 10-cm dishes, plated onto 10-cm dishes by dividing the cell colony in four quarters, and cultured for 2 days in Ham's F12 medium (as for CHO-K1-mGPR12, 700 μg/mL of Geneticin® was contained). After removing the medium, the resultant cultured cells were washed once with the medium containing no Geneticin®, and then Ham's F12 medium containing 10^−9 M of Nesfatin-1M30 (Mid-segment) peptide was added to the cells. […] SDS-gel electrophoresis was conducted by using the protein extracts from each cells; and then the protein was transcribed into Amersham hybond-P[…] (GE Healthcare); and using anti-phosphorylation CREB antibody (Cell Signaling Technology, Inc., Catalog No. #9191) for detecting the phosphorylated CREB, the phosphorylated CREB was detected with an ECL plus western blotting detection reagents (GE Healthcare) kit, in accordance with the attached protocol. […]
# Further, the concentration dependence was examined by using Nesfatin-1M30 (Mid-segment: SEQ ID NO: 11). […] Subsequently, cellular proteins were extracted, and the phosphorylated CREB (p-CREB) was detected by a western blotting method.
# [2] = molecular target: T2, GPR12 (Mus musculus, UniProt P35412); assay: Expression of a CRE-reporter gene (pCRE-Luc luciferase) in NB41A3 cells expressing GPR12 endogenously; assay type: cell-based; details: NB41A3 cells transfected with pCRE-Luc, 10^-10 M, 16 hours
# T2 construct: in which GPR12 was endogenously expressed; endogenous in cells; host or cells: NB41A3 cells (ATCC-CCL147), mouse brain neuroblastoma
# T2 sequence (P35412 1-334): T1 sequence (P35412 1-334)
# Method: NB41A3 cells (ATCC-CCL147), a cell strain derived from mouse brain neuroblastoma, in which GPR12 was endogenously expressed were used. The confluent NB41A3 cells were recovered in a 10-cm dish, plated onto 10 cm-dishes after dividing the cell colony in four quarters, and cultured for one day in Ham's F12K medium. The cells were transected with 5 μg of the reporter plasmid pCRE-Luc (Stratagene Corporation, Catalog No. 219074) in which TATA-BOX and luciferase were incorporated into downstream of CRE by a calcium phosphate method. The cells were washed with Ham's F12K medium 16 hours after the transfection. Ham's F12K medium containing no test substance (Vehicle), Ham's F12K medium containing 10^−10 M of Nesfatin-1 M30 (Mid-Segment: SEQ ID NO: 11), Ham's F12K medium containing 10^−10 M of a modified peptide M30_Ag-A (SEQ ID NO: 50) (M30_Ag-A), and Ham's F12K medium containing 10^−10 M of a modified peptide M30_MSH-A (SEQ ID NO: 51) […] were added to the cells, and the resultant mediums were cultured under the conditions of 37° C. and 5% CO2 for 16 hours. After the culturing, the cells were washed twice with phosphate-buffered saline (PBS), lysed with 4 mL of lysis buffer (an aqueous solution containing 25 mM of glycylglicine (pH 7.8), 15 mM of magnesium sulfate, 4 mM of glycol ether diaminetetraacetic acid (EGTA), 1 mM of dithiothreitol (DTT), and 1% (volume/volume) of Triton X-100). […] After adding 200 μL of 0.2 mM of d-luciferin to the diluted cell lysate, the luminescence was measured for 10 seconds by a luminometer, and the amount of luminescence (units) was determined. Further, the amount of protein in each cell lysate was measured by BCA™ Protein Assay Kit-Reducing Agent Compatible (Pearce, Catalog No. 23250), and the value obtained by dividing the amount of luminescence (units) by the amount of protein (μg) in a sample was determined as a luciferase activity. […] The cells were cultured for 16 hours, and then the level of luciferase activity was also determined.
substance,measurement,setting,value
"Nesfatin-1M30: mid-segment of Nesfatin-1, human-derived Nesfatin-1M30, SEQ ID NO: 11 (PDTGLYYDEYLKQVIDVLETDKHFREKLQK; listed as Homo sapiens)","phosphorylation of CREB (p-CREB band), time course","[1]; 10^-9 M, 15 minutes or later after contact",phosphorylation of CREB was induced
same,"phosphorylation of CREB, concentration dependence","[1]; 10^-12 M to 10^-9 M, 15 minutes",enhanced depending on the M30 peptide concentration
same,luciferase activity compared with Vehicle,[2],enhanced
